Test results from PMC9232852 (2022).

Key:
BTN2A1 ID271 = molecular target: T1, BTN2A1 ID271 (Homo sapiens, UniProt Q7KYR7); experiment: ITC
T1 chain: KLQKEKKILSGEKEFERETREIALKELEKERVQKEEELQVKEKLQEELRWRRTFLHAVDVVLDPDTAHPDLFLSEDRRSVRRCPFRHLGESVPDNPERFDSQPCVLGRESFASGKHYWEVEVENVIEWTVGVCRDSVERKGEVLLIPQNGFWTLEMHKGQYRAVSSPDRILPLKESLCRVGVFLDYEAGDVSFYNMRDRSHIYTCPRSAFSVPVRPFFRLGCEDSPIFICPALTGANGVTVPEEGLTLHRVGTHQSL

BTN2A1 ID309 = molecular target: T2, BTN2A1 ID309 (Homo sapiens, UniProt Q7KYR7); experiment: ITC
T2 chain: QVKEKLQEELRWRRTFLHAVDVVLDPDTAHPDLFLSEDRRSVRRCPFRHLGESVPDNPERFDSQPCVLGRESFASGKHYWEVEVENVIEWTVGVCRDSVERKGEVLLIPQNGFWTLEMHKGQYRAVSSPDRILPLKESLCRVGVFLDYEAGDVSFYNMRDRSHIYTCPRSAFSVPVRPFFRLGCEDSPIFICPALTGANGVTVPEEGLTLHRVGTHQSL

B1: BTN3A1 B30.2 (protein)
chain: not shown
modifications: HMBPP
For B1, the Kd (BTN2A1 ID271) was 463 nM.

B2: BTN3A1 BFI (full intracellular domain) (protein)
chain: not shown
modifications: HMBPP
Binder B2 has a Kd (BTN2A1 ID309) of 674 nM and a Kd (BTN2A1 ID271) of 886 nM.
